In patent publication US20190015483A1 (CSL BEHRING RECOMBINANT FACILITY, published 2019) one finds Kd, koff and kon data, which are given here for 26 molecules.

One may read the Kd as a measure of binding affinity in units of concentration. By koff is commonly meant the first-order rate constant of dissociation. The term kon denotes the second-order rate constant of association.

Sequences and labels used below:
T1: recombinant Factor VIII (CSL627, rVIII-SingleChain) (Homo sapiens (Human), UniProt P00451 20-2351)
T1 construct: also called FVIII
T1 sequence: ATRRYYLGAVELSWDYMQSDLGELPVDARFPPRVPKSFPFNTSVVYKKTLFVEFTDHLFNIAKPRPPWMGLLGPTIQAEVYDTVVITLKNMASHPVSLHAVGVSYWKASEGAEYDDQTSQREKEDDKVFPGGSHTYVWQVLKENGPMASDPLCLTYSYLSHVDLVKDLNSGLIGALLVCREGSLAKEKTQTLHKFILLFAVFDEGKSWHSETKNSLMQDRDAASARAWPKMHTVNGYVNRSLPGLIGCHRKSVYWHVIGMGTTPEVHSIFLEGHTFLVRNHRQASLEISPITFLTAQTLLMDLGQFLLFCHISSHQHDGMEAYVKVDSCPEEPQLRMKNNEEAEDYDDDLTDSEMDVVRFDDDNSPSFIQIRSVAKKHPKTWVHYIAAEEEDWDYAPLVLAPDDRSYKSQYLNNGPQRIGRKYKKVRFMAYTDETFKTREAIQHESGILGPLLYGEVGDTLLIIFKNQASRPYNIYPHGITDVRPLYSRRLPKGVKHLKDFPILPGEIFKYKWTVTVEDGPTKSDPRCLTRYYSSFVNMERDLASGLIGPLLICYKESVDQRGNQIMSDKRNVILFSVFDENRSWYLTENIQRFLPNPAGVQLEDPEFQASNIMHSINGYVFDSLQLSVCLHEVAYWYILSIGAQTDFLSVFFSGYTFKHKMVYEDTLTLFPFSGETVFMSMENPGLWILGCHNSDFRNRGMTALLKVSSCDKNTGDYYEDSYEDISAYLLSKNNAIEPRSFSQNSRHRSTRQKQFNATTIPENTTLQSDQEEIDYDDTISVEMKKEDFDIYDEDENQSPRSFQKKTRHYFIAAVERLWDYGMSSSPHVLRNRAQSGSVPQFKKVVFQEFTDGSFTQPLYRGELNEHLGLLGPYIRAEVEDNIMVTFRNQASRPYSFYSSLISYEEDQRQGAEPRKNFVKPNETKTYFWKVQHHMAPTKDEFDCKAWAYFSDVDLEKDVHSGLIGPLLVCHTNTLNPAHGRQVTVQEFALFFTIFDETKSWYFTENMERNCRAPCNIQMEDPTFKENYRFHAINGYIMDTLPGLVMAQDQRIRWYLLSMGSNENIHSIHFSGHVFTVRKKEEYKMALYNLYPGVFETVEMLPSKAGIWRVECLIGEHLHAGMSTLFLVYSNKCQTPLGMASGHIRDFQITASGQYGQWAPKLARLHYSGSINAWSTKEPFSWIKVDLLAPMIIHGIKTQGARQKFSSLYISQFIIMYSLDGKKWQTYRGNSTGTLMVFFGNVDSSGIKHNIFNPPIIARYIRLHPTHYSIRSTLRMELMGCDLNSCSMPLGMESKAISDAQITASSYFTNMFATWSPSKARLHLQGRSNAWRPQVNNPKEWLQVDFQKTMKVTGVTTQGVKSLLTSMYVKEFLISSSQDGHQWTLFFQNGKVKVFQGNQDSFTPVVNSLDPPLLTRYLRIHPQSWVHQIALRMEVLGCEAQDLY

B1: Hu-vWF[764-1270]-8His S764A/S766Y (other)
chain: ALYCRPPMVKLVCPADNLRAEGLECTKTCQNYDLECMSMGCVSGCLCPPGMVRHENRCVALERCPCFHQGKEYAPGETVKIGCNTCVCRDRKWNCTDHVCDATCSTIGMAHYLTFDGLKYLFPGECQYVLVQDYCGSNPGTFRILVGNKGCSHPSVKCKKRVTILVEGGEIELFDGEVNVKRPMKDETHFEVVESGRYIILLLGKALSVVWDRHLSISVVLKQTYQEKVCGLCGNFDGIQNNDLTSSNLQVEEDPVDFGNSWKVSSQCADTRKVPLDSSPATCHNNIMKQTMVDSSCRILTSDVFQDCNKLVDPEPYLDVCIYDTCSCESIGDCACFCDTIAAYAHVCAQHGKVVTWRTATLCPQSCEERNLRENGYECEWRYNSCAPACQVTCQHPEPLACPVQCVEGCHAHCPPGKILDELLQTCVDPEDCPVCEVAGRRFASGKKVTLNPSDPEHCQICHCDVVNLTCEACQEPGGLVVPPTDAPVSPTTLYVEDISEPPLHDFHHHHHHHH
B2: Hu-vWF[764-1270]-8His S764F/S766Y (other)
chain: B1 chain with A1F
B3: Hu-vWF[764-1270]-8His S764E/S766Y (other)
chain: B1 chain with A1E
B4: Hu-vWF[764-1270]-8His S764H/S766Y (other)
chain: B1 chain with A1H
B5: Hu-vWF[764-1270]-8His S764I/S766Y (other)
chain: B1 chain with A1I
B6: Hu-vWF[764-1270]-8His S764K/S766Y (other)
chain: B1 chain with A1K
B7: Hu-vWF[764-1270]-8His S764D/S766Y (other)
chain: B1 chain with A1D
B8: Hu-vWF[764-1270]-8His S764G/S766Y (other)
chain: B1 chain with A1G
B9: Hu-vWF[764-1270]-8His S766Y-K773F (other)
chain: B1 chain with A1S, K10F
B10: Hu-vWF[764-1270]-8His S766Y-K773Q (other)
chain: B1 chain with A1S, K10Q
B11: Hu-vWF[764-1270]-8His S766Y-K773V (other)
chain: B1 chain with A1S, K10V
B12: Hu-vWF[764-1270]-8His S766Y-K773M (other)
chain: B1 chain with A1S, K10M
B13: Hu-vWF[764-1270]-8His S766Y-K773S (other)
chain: B1 chain with A1S, K10S
B14: Hu-vWF[764-1270]-8His S766Y-K773A (other)
chain: B1 chain with A1S, K10A
B15: Hu-vWF[764-1270]-8His S766Y-K773N (other)
chain: B1 chain with A1S, K10N
B16: Hu-vWF[764-1270]-8His S766Y-K773P (other)
chain: B1 chain with A1S, K10P
B17: Hu-vWF[764-1270]-8His S766Y-K773D (other)
chain: B1 chain with A1S, K10D
B18: Hu-vWF[764-1270]-8His S766Y-K773T (other)
chain: B1 chain with A1S, K10T
B19: Hu-vWF[764-1270]-8His S766Y-K773W (other)
chain: B1 chain with A1S, K10W
B20: Hu-vWF[764-1270]-8His S766Y-K773I (other)
chain: B1 chain with A1S, K10I
B21: Hu-vWF[764-1270]-8His S766Y-K773Y (other)
chain: B1 chain with A1S, K10Y
B22: Hu-vWF[764-1270]-8His S766Y-K773L (other)
chain: B1 chain with A1S, K10L
B23: Hu-vWF[764-1270]-8His S766Y-K773R (other)
chain: B1 chain with A1S, K10R
B24: Hu-vWF[764-1270]-8His S766Y-K773G (other)
chain: B1 chain with A1S, K10G
B25: Hu-vWF[764-1270]-8His S766Y-K773E (other)
chain: B1 chain with A1S, K10E
B26: Hu-vWF[764-1270]-8His S766Y-K773H (other)
chain: B1 chain with A1S, K10H

Where a chain is given by its changes, count along the chain named. In names and notes the source's numbering stands.

In one assay the target is T1, recombinant Factor VIII (CSL627, …). The assay can be described thus: SPR, anti-His capture. As for the experimental part: Binding kinetics were investigated by surface plasmon resonance using a Biacore 4000 biosensor at 37° C. Each mutant was captured from cell culture medium to a density of 40-150 RU on a CM-5 sensor chip pre-immobilised with anti-His antibody (14,000 RU). In an initial screening study, FVIII was injected over the captured mutants for 5 minutes at 1 nM and dissociation monitored for 5 minutes.
All sensorgrams were double referenced by subtraction of signals from a reference spot (containing only immobilised anti His antibody) and from a blank injection. Binding kinetics were determined by fitting the double referenced sensorgrams to a 1:1 kinetic model.
On the technique in general: In SPR one partner is held on a chip, and binding of the other changes the refractive index at the surface.
For B1, the Kd amounted to 2.42 pM, the off-rate constant (koff) came to 7.21e-05 s⁻¹ and the kon stood at 2.98e+07 M⁻¹ s⁻¹.

B2: the Kd turned out to be 12.2 pM, the koff stood at 9.36e-05 s⁻¹ and the kon worked out at 7.68e+06 M⁻¹ s⁻¹.

B3: the Kd turned out to be 3.87 pM, the koff is 7.64e-05 s⁻¹ and the kon was 1.97e+07 M⁻¹ s⁻¹.

Regarding B4, the Kd was 6.39 pM, the koff is 0.000292 s⁻¹ and the kon is 4.56e+07 M⁻¹ s⁻¹.

For B5, the Kd was found to be 9.23 pM, the koff came to 9.52e-05 s⁻¹ and the kon was found to be 1.03e+07 M⁻¹ s⁻¹.

Regarding B6, the Kd was 43.5 pM, the koff came out at 0.000822 s⁻¹ and the kon is 1.89e+07 M⁻¹ s⁻¹.

As to B7, the Kd was 3.12 pM, the off-rate constant (koff) turned out to be 0.000118 s⁻¹ and the kon was 3.78e+07 M⁻¹ s⁻¹.

On to B8, for which the Kd came out at 1.96 pM, the koff is 2.69e-05 s⁻¹ and the kon stood at 1.37e+07 M⁻¹ s⁻¹.

Another assay has the same target. The assay is described as follows: SPR, anti-His capture. The source holds these as a separate data set. In short, it runs like this: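 First, mutants in culture medium are loaded to 40-150 RU on anti-His-coated chip; next, 1 nM FVIII is passed over for 5 min and washout followed for 5 min; finally, 1:1 fitting of double-referenced data gives rate constants.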
As to B9, the Kd was 158 pM, the koff came to 0.00324 s⁻¹ and the kon was 2.05e+07 M⁻¹ s⁻¹.

For the molecule B10, the Kd stood at 39.3 pM, the koff is 0.000939 s⁻¹ and the kon was 2.39e+07 M⁻¹ s⁻¹.

On to B11, for which the Kd stood at 49.4 pM, the koff is 0.000861 s⁻¹ and the association rate constant (kon) amounted to 1.74e+07 M⁻¹ s⁻¹.

For B12, the Kd is 33.5 pM, the koff came to 0.000659 s⁻¹ and the kon amounted to 1.97e+07 M⁻¹ s⁻¹.

Take B13: the Kd was found to be 78.5 pM, the koff was 0.00138 s⁻¹ and the kon turned out to be 1.75e+07 M⁻¹ s⁻¹.

In the case of B14, the Kd was determined as 65.1 pM, the koff worked out at 0.00122 s⁻¹ and the kon turned out to be 1.88e+07 M⁻¹ s⁻¹.

For the molecule B15, the Kd was found to be 98.4 pM, the koff came out at 0.00507 s⁻¹ and the kon was 5.15e+07 M⁻¹ s⁻¹.

Consider B16, for which the Kd is 112 pM, the off-rate constant (koff) was determined as 0.00243 s⁻¹ and the kon worked out at 2.16e+07 M⁻¹ s⁻¹.

For B17, the Kd stood at 343 pM, the koff amounted to 0.0427 s⁻¹ and the kon was found to be 1.25e+08 M⁻¹ s⁻¹.

Regarding B18, the Kd was found to be 22.4 pM, the koff was 0.000269 s⁻¹ and the kon came out at 1.2e+07 M⁻¹ s⁻¹.

For B19, the Kd stood at 134 pM, the koff worked out at 0.00393 s⁻¹ and the kon turned out to be 2.93e+07 M⁻¹ s⁻¹.

For B20, the Kd came to 71 pM, the koff was 0.000569 s⁻¹ and the association rate constant (kon) was found to be 8.02e+06 M⁻¹ s⁻¹.

As for B21, the dissociation constant (Kd) is 180 pM, the koff is 0.00404 s⁻¹ and the kon turned out to be 2.24e+07 M⁻¹ s⁻¹.

Take B22: the Kd was found to be 19.2 pM, the koff worked out at 0.000345 s⁻¹ and the kon worked out at 1.79e+07 M⁻¹ s⁻¹.

In the case of B23, the Kd amounted to 33.5 pM, the koff was 0.000469 s⁻¹ and the kon is 1.4e+07 M⁻¹ s⁻¹.

On to B24, for which the Kd was 32.7 pM, the koff came to 0.00197 s⁻¹ and the kon came out at 6.02e+07 M⁻¹ s⁻¹.

As to B25, the Kd is 261 pM, the koff is 0.00481 s⁻¹ and the kon worked out at 1.84e+07 M⁻¹ s⁻¹.

As to B26, the dissociation constant Kd came out at 114 pM, the koff amounted to 0.0062 s⁻¹ and the kon stood at 5.47e+07 M⁻¹ s⁻¹.
